In the supplement of paper PMC10126150:
± gives the standard deviation of the averaged measurements.

System: ATP
Experiment: switch fluorescence ratio, 500 uM ATP over buffer (Cy3 cluster intensity, sum of 5 cycles each) (fold (ratio)); higher = stronger signal-on switching upon ATP binding; sequences stand for … in TCGTCGGCAGCGTCAGATGTGTATAAGAGACAGTTTTTTTTTTTTTTTTTTTTTTTTT…TC
Conditions: aptamer strand: ATP DNA aptamer (quencher-CACCTGGGGGAGTATTGCGGAGGAAGG + anchor), 100 nM annealed; ATP concentration: 500 uM
Outline: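 Clusters carrying Cy3-labelled switching strands on a modified Illumina MiSeq flow-cell were annealed to 100 nM quencher-labelled ATP aptamer and imaged in selection buffer. They were imaged again after 15 min with 500 uM ATP at 22 °C, over five buffer/ATP cycles with NaOH stripping and re-annealing in between. For each cluster, the fluorescence ratio is the summed Cy3 intensity of the target cycles divided by that of the buffer cycles, averaged per switch-domain sequence. Clusters outside 100-1000 RFU were left out.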
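Note: ATP exposure 15 min at 22 °C before imaging.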

Sequence	switch fluorescence ratio
GAATGGGTAG	0.9961 ± 0.0042
GATTTTGGCT	0.9969 ± 0.0019
TATAAGTGGT	0.992 ± 0.023
GGGGATTTGG	0.992 ± 0.018
GCTGATAATG	0.978 ± 0.014
TGTAAGCCTT	1.03 ± 0.079
TTGAAAGTGA	1.13 ± 0.25
GGGGTGCTG	1.02 ± 0.036
GAAAGGGGGC	0.963 ± 0.041
AAGATATGGC	1.02 ± 0.047
CTAGAGGGGA	1.14 ± 0.2
AGGGTCTTAG	1.02 ± 0.049
CGTAGTAGAC	2.61 ± 0.26
GTGGAAGTTG	0.949 ± 0.041
GAAGGATAGC	0.998 ± 0.018
TCATATGGTT	0.999 ± 0.019
GCGGGGCCAT	1.02 ± 0.028
ACAGCGGGA	1.0254 ± 4.6e-06
GAAATAGGTA	0.988 ± 0.013
TTTATTGATG	0.997 ± 0.016
AAGGTCGCGT	0.9906 ± 0.0039
AAACGCTGGT	1.01 ± 0.0087
GATCTACAGC	1.02 ± 0.024
ACGTTCCGCT	1.099 ± 0.003
GTAAGATTAT	0.985 ± 0.067

Sequence	switch fluorescence ratio
TGTAAGGGAC	1.07 ± 0.034
ACGCGGCGTG	0.982 ± 0.03
TGAATAGGAG	1.011 ± 0.0027
AATAAGTTGT	0.999 ± 0.035
ATAAGGGCGA	0.985 ± 0.028
TTTCAAGGGT	0.9851 ± 0.0031
GTGTAATAGG	0.9713 ± 0.0056
CTAGACGTTT	1.01 ± 0.047
AAACGGCATC	1.073 ± 0.0074
ATAATTTTCA	1.01 ± 0.03
GCGGGGCCTG	0.993 ± 0.051
GTCTGAACGG	0.9762 ± 0.0081
ATAAGGGCGT	1.001 ± 0.0065
GCGGTGGACG	0.947 ± 0.077
TGACGCCGGG	0.98 ± 0.018
ACATTGAGCG	1.03 ± 0.028
GTGTTAGGGC	0.9919 ± 0.0057
TAAACAATTA	0.9734 ± 0.0095
CGGAGTTGCG	0.98 ± 0.013
ATGAGACAGA	0.999 ± 0.049
ATGAGAAAAG	0.991 ± 0.0095
CGGAGACCGT	1 ± 0.022
CTTTAAAAAG	1 ± 0.059
TATTAGCAGC	1.03 ± 0.012
AGATGTATAG	1.034 ± 0.009

Sequence	switch fluorescence ratio
TAATTTACAG	1 ± 0.03
GGGCTTTTCG	0.992 ± 0.024
GGTGTAGAAC	1 ± 0.049
CTAGTCGTAC	1.03 ± 0.068
ATTTCTCAAT	1.01 ± 0.03
AGGGCAGGTA	1 ± 0.015
AAGAAATAAA	0.9744 ± 0.0095
CCAGCCGGGG	1.06 ± 0.075
CTATAACGTT	1.01 ± 0.005
GGTTATTATG	0.978 ± 0.039
GCCGGGGAGG	0.984 ± 0.038
AGTTTTTGAT	0.9692 ± 0.0068
AGCAGGGGCT	1.025 ± 0.0069
AGTATTGCAG	0.9322 ± 0.002
GCAGTTATTT	0.966 ± 0.026
AGTAGTATCT	0.981 ± 0.03
TCATGTTTTT	1.05 ± 0.14
GTTGGTAGGT	0.997 ± 0.019
TTTGGTTGTA	0.965 ± 0.014
ACTGTGTTTT	0.972 ± 0.015
TAGGGAATTG	1.01 ± 0.011
CGCGATGTAC	3.82 ± 0.15
AGCGATCGGT	1.03 ± 0.014
CAGCTTAGGG	1.01 ± 0.036
ACAGGTTAGT	0.989 ± 0.034

Sequence	switch fluorescence ratio
TTGTCAGGGT	0.995 ± 0.026
CGTATTGCCA	1 ± 0.025
GGAAATGAAT	1.02 ± 0.029
CGGGAGGTAT	1 ± 0.012
GATCCTTTAT	0.979 ± 0.02
TGTTATATGT	1.01 ± 0.012
AGGGTGTGGC	1.0304 ± 0.00027
TTTCCGATTT	0.9886 ± 0.0024
TATGACTCGT	0.99 ± 0.021
TCGGAAGGCT	0.999 ± 0.089
GGAGTTGCAG	0.975 ± 0.063
CAAGACTTCG	1.01 ± 0.052
GGTGACGATT	0.9712 ± 0.0065
TTTTACGGGA	1.26 ± 0.41
TGCCAACAGA	1.25 ± 0.39
TCTGGTTGGT	1.01 ± 0.051
AGGGATCTTT	0.963 ± 0.038
GAATGGGGCA	0.978 ± 0.032
CCTGTTCGGC	1.02 ± 0.038
TGGGAAAGCT	1.256 ± 0.0016
TTTTAACTTT	1.03 ± 0.052
TGCTTGCCTT	0.9886 ± 0.0096
TACGTTATGC	1.27 ± 0.013
ACGGTCCAGG	3 ± 0.5
AGGTCATCGA	1.004 ± 0.0064
